Consider 1 molecule from paper PMC9167300, “The LCK-14-3-3ζ-TRPM8 axis regulates TRPM8 function/assembly and promotes pancreatic cancer malignancy” (Cell Death & Disease, 2022).

The target of the assay is T1, His-LCK fusion (human, UniProt P06239 1-509).
T1 construct: human LCK cDNA subcloned into pET28a(+); also called His-fused LCK; source: E. coli BL21, purified (Ni-NTA agarose)
The experiment in a line: pull-down; protein-protein interaction assay in vitro: 150 μg His-LCK eluted from Ni-NTA incubated with GST or GST-M8C bound to GST-agarose beads, 1 h at room temperature; Western blot. The settings on record: both partners purified.

T1 sequence (P06239 whole entry, the tested form may be a part): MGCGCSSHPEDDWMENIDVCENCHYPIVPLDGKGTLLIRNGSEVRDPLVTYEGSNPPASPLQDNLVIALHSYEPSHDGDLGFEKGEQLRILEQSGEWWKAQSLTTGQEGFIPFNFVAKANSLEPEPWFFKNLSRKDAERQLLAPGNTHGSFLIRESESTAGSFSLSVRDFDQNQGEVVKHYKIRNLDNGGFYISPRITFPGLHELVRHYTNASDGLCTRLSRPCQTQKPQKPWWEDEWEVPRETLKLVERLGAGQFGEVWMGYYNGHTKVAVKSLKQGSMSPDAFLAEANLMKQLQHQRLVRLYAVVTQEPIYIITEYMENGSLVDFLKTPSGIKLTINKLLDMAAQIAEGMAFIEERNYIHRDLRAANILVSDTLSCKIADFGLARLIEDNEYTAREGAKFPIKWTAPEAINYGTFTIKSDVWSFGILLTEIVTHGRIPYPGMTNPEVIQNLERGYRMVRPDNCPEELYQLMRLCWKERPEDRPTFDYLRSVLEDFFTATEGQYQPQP

B1: GST-tagged C-terminus of TRPM8 (GST-M8C) (domain or fragment, rat, UniProt Q8R455 980-1104, looked up)
chain: GYTVGIVQENNDQVWKFQRYFLVQEYCNRLNIPFPFVVFAYFYMVVKKCFKCCCKEKNTESSACCFRNEDNETLAWEGVMKENYLVKINTKANDNAEEMRHRFRQLDTKLNDLKGLLKEIANKIK
notes: C-terminus of rat TRPM8 (M8C), amino acids 980-1104, in pGEX-4T-1; source: E. coli BL21, purified (glutathione beads)
Consider B1, for which the binding result is recorded as “binds”.
